# Results reported in patent publication US20260201355A1 (GENKORE, published 2026).
# Target: the molecule itself
# Experiment: size exclusion chromatography (Superdex 200) of the CWCas12f-gRNA ribonucleoprotein complex
# Protocol: Using the method for production of ribonucleoprotein particles in Example 1.7, the CWCas12f protein was incubated with the gRNA to produce a ribonucleoprotein complex. The ribonucleoprotein complex was analyzed by size exclusion chromatography using a Superdex 200 column.
protein,measurement,value
"CWCas12f protein (enzyme, Recombinant protein purified from E. coli and incubated with engineered sgRNA to form the ribonucleoprotein before size exclusion chromatography; The complex also contains the sgRNA, which is not a protein; also called TnpB; wild-type CWCas12f) MGEKSSRRRRNGKSGAWTAAITSCVGGKMAKNTITKTLKLRIVRPYNSAEVEKIVADEKNNREKIALEKNKDKVKEACSKHLKVAAYCTTQVERNACLFCKARKLDDKFYQKLRGQFPDAVFWQEISEIFRQLQKQAAEIYNQSLIELYYEIFIKGKGIANASSVEHYLSDVCYTRAAELFKNAAIASGLRSKIKSNFRLKELKNMKSGLPTTKSDNFPIPLVKQKGGQYTGFEISNHNSDFIIKIPFGRWQVKKEIDKYRPWEKFDFEQVQKSPKPISLLLSTQRRKRNKGWSKDEGTEAEIKKVMNGDYQTSYIEVKRGSKIGEKSAWMLNLSIDVPKIDKGVDPSIIGGIDVGVKSPLVCAINNAFSRYSISDNDLFHFNKKMFARRRILLKKNRHKRAGHGAKNKLKPITILTEKSERFRKKLIERWACEIADFFIKNKVGTVQMENLESMKRKEDSYFNIRLRGFWPYAEMQNKIEFKLKQYGIEIRKVAPNNTSKTCSKCGHLNNYFNFEYRKKNKFPHFKCEKCNFKENADYNAALNISNPKLKSTKEEP",binding result,binds
